Laboratory results from US11224632B2 (priority 2016, dated 2022).
“Also recorded” adds a separate entry of the source. Where no end group is shown, it is not given here. [ ]: non-standard residue; d: D form.

What was measured:
[1] = molecular target: CaV2.2 channel (Homo sapiens, UniProt Q00975); type: cell-based
[2] = molecular target: T1, CaV1.2 channel (Oryctolagus cuniculus, UniProt P15381); test: whole cell patch clamp of CaV1.2-mediated ion currents in tsA201 cells co-expressing CaV1.2 and CaVbeta2e; type: cell-based, rabbit; conditions: 150 nM peptide
T1 construct: The coding regions of the two different alpha1 pore-forming units (CaValpha1) of the voltage-dependent calcium channel were fused in frame; expressed in transfected cells; host or cells: tsA201 cells, transient co-transfection
T1 sequence (P15381 whole entry, the tested form may be a part): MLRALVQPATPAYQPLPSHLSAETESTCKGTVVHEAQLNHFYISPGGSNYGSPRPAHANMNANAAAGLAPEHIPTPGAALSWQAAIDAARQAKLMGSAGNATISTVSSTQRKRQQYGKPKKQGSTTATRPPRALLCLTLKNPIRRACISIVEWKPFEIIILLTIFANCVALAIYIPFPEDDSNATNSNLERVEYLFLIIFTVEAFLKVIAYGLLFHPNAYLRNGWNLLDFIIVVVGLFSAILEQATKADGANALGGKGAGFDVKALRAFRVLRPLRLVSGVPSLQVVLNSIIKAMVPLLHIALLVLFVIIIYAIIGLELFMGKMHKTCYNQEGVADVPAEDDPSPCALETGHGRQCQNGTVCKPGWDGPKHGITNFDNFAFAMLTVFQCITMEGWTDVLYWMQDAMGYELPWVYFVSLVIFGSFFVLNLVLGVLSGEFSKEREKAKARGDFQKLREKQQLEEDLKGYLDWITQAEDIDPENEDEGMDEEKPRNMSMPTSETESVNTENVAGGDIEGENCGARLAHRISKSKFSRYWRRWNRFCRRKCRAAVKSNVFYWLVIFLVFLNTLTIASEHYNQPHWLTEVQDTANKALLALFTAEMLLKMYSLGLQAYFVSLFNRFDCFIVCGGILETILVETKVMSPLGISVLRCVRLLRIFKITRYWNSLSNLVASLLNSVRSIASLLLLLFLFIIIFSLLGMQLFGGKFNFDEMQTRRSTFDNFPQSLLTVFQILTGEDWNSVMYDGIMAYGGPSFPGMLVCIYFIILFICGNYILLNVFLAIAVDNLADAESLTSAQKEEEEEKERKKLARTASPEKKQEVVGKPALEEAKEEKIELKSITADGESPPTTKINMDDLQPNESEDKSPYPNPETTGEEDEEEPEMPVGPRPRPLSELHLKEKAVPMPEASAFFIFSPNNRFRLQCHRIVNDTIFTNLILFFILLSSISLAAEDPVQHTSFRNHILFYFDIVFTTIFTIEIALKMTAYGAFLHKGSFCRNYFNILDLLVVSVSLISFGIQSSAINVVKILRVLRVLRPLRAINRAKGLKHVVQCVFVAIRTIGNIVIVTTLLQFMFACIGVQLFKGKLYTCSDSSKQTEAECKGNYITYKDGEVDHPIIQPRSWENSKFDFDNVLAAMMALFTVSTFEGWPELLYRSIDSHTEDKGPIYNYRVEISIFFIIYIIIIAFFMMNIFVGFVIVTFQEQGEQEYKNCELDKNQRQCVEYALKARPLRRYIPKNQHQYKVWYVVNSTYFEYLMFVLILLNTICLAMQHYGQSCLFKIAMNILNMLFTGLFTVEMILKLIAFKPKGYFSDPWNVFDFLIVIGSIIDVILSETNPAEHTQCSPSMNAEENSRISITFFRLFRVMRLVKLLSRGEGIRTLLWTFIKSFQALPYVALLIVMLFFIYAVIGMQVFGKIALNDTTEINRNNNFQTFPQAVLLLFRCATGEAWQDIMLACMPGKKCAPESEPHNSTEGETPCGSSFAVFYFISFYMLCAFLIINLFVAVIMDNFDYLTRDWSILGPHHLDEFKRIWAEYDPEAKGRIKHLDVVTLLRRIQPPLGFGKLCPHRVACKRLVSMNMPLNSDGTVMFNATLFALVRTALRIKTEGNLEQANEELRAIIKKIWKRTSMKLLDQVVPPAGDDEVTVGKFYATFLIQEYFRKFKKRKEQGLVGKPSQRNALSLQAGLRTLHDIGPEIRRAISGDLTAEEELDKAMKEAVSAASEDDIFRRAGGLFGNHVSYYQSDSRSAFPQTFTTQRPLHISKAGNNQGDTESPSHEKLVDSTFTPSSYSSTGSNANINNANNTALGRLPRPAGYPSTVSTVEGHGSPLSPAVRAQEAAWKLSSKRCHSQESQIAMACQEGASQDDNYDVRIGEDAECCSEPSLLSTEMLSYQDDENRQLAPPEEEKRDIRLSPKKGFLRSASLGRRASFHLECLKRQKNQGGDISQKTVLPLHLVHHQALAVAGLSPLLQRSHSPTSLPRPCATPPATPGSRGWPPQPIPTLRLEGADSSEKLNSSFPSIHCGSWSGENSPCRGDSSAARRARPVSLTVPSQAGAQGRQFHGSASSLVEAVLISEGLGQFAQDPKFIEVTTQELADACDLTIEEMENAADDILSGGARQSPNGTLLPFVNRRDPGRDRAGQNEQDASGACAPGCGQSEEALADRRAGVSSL
T1 sequence (Q8VGC3 1-611 isoform Q8VGC3-4 partner): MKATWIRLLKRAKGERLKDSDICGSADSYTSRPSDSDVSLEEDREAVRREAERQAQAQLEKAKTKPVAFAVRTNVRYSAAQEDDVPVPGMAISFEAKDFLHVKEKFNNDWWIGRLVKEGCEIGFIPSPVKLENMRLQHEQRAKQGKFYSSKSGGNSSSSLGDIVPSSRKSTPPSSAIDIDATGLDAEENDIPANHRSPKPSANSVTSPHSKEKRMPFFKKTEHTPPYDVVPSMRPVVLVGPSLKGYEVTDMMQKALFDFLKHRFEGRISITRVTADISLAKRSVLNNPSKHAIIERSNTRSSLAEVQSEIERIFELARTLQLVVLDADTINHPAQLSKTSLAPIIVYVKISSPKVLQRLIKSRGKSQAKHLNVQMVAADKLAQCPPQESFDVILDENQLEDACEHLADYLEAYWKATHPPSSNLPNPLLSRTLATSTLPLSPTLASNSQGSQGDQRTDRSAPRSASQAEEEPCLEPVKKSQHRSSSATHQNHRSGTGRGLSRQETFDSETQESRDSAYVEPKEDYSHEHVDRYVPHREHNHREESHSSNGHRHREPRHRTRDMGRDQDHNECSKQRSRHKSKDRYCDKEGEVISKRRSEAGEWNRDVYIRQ

Chain of CaV2.2 channel (Q00975 whole entry, looked up): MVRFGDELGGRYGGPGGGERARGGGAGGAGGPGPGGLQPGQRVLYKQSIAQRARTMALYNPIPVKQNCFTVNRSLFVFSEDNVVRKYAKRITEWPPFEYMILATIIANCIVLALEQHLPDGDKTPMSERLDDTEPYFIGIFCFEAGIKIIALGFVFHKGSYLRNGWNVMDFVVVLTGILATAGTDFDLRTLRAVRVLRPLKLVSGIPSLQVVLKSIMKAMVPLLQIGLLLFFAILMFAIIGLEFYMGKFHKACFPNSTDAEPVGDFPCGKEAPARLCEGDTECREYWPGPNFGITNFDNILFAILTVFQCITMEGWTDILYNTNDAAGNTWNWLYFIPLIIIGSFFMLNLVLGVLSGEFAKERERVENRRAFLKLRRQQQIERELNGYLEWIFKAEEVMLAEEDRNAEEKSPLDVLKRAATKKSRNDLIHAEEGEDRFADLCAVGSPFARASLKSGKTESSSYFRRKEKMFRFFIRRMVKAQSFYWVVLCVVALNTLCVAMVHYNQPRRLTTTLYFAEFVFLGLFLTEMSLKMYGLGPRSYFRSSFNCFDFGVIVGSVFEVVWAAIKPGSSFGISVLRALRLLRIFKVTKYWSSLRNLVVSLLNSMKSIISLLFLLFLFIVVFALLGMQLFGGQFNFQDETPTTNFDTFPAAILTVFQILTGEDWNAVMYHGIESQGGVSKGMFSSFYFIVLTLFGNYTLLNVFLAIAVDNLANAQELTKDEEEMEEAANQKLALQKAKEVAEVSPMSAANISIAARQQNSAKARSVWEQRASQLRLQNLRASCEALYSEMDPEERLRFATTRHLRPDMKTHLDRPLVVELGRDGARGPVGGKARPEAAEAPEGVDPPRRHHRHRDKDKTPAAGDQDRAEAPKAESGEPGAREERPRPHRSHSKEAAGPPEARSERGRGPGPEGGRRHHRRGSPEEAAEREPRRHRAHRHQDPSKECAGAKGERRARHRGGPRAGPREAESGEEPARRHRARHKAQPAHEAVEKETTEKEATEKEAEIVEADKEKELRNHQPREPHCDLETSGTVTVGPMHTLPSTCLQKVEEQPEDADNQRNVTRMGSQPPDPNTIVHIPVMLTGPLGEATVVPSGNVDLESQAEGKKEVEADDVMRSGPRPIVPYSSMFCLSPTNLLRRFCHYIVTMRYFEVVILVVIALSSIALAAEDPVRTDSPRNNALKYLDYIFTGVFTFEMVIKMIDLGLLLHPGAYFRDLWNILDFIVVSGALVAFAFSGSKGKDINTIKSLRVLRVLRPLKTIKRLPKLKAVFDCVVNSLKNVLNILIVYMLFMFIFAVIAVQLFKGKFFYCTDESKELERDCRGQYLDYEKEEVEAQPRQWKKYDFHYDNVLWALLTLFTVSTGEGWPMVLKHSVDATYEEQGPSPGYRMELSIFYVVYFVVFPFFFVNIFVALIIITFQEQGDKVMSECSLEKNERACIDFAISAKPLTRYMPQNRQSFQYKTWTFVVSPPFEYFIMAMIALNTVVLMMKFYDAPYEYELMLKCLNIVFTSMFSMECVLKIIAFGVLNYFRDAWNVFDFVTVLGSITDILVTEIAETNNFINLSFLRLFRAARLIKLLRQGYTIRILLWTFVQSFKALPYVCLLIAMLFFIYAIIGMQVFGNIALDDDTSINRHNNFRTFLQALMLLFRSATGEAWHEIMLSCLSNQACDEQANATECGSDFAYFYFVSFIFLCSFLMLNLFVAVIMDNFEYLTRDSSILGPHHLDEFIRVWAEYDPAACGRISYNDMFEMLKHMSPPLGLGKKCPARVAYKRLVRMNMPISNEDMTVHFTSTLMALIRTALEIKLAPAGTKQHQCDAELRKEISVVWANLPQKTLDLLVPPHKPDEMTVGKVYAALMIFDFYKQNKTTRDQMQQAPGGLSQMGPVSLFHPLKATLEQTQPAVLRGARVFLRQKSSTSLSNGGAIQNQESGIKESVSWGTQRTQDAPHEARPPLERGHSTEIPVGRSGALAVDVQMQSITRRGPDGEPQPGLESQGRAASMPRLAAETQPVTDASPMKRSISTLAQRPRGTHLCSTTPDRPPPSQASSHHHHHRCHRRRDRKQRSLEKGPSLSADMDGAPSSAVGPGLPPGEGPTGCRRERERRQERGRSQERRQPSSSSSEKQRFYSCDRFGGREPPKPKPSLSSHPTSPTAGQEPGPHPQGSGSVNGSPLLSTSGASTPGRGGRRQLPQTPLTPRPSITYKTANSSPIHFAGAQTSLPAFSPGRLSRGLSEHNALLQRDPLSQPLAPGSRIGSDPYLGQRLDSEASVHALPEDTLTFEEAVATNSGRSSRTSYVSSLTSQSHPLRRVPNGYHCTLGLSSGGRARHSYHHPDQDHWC

Substance	effect on CaV2.2-mediated ion currents (control blocker) [1]	change in voltage-dependent activation of the CaV2.2 channel (activation curve) [1]	effect on CaV2.2-mediated ion current [1]	reduction in the ion current at all tested voltages (current-to-voltage plot) [1]	voltage dependency of activation of the CaV1.2 channel [2]	effect on CaV1.2-mediated ion current ([2]; pulses -90 mV to +10 mV)	reversibility of inhibition of CaV2.2 current [1]
omega-conotoxin [reference compound]	interrupted	–	–	–	–	–	–
ptlhthnrrrrr ([dP][dT][dL][dH][dT][dH][dN][dR][dR][dR][dR][dR]) [RD2]	–	not accompanied by a change in voltage-dependent activation of the channel	significant reduction in the ion current; also recorded: blocks the CaV2.2 channel	up to 55%	not affected	remained virtually unchanged; also recorded: insensitive	–
rprtrlhthrnr ([dR][dP][dR][dT][dR][dL][dH][dT][dH][dR][dN][dR]) [D3]	–	not accompanied by a change in voltage-dependent activation of the channel	significant reduction in the ion current; also recorded: blocks the CaV2.2 channel	up to 54%	–	–	reversible
